Reference: patent publication CN117357474A (JIANGSU QUANXIN BIOMEDICAL CO LTD, dated 2024)

T1: human IL-36R on cells (HT29 reporter cells, HT29, A431, human PBMC) (human, UniProt Q9HB29 20-575)
T1 sequence (looked up): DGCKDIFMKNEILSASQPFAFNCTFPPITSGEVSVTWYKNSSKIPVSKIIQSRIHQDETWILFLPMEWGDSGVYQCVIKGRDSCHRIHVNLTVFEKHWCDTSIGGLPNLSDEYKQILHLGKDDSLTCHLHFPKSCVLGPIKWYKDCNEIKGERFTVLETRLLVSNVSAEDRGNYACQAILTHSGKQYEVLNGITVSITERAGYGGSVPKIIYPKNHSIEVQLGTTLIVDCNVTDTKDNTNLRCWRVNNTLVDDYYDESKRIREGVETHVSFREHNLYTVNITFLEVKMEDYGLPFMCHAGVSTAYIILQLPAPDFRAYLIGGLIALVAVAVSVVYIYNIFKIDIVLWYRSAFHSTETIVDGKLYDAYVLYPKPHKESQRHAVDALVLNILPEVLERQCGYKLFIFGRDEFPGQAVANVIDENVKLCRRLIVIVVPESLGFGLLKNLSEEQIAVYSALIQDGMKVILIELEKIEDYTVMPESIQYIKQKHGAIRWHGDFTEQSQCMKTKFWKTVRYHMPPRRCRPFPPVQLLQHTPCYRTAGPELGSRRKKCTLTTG

T2: 人白介素-36受体 (human IL-36R), soluble antigen in the Biacore assay (human)
T2 chain: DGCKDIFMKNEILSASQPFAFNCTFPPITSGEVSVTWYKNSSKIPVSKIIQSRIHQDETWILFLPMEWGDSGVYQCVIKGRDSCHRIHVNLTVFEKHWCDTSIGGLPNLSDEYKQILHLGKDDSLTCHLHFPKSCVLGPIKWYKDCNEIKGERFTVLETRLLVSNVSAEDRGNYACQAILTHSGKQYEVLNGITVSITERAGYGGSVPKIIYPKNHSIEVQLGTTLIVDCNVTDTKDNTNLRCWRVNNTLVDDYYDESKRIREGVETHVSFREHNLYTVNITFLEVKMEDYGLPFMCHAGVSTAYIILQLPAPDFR


Columns and labels:
[1] = molecular target: T1, human IL-36R on cells (HT29 reporter …); assay: cell-based or functional assay
[2] = molecular target: T2, 人白介素-36受体 (human IL-36R), soluble …; assay: SPR, Biacore T200, antibody captured on Protein A chip, antigen in flow, 25°C, 1:1 model, mean of three runs

| 抑制人IL-36(α、β、γ)诱导A431细胞释放CXCL-1的IC50 [1] [ng/mL] | 抑制人IL-36(α、β、γ)诱导A431细胞释放IL-8的IC50 [1] [ng/mL] | 抑制人IL-36(α、β、γ)诱导HT29细胞释放CXCL-1的IC50 [1] [ng/mL] | 抑制人IL-36(α、β、γ)诱导HT29细胞释放IL-8的IC50 [1] [ng/mL] | 抑制人IL-36(α、β、γ)诱导的HT29报告基因细胞STAT3磷酸化活性的IC50 [1] [ng/mL] | 抑制人IL-36β诱导的人PBMC细胞释放IL-8活性的IC50 [1] [ng/mL] | Kd [2] [nM] | koff [2] [s⁻¹] | kon [2] [M⁻¹ s⁻¹] | 抑制人IL-36(α、β、γ)诱导的HT29报告基因细胞STAT3磷酸化的IC50 [1] [ng/mL] | 抑制人IL-36β诱导的人PBMC释放IL-8活性的IC50 [1] [ng/mL] | Binder |
| --- | --- | --- | --- | --- | --- | --- | --- | --- | --- | --- | --- |
| 4.12 | 2.89 | 2.21 | 1.53 | 2.16 | 4.69 | 0.313 | 3.58e-05 | 114000 |  |  | QX009N(HZD25-54) (antibody, V domains shown) VH: EVQLVESGGGLVQPGGSLRLSCAASGIDLSNYAMGWVRQAPGKGLEWVGYISGGGSAYYASWAKGRFTISRDNSKNTLYLQMNSLRAEDTAVYYCARWAIKSYFFGMDLWGQGTLVTVSS VL: DIQMTQSPSSVSASVGDRVTITCQASEYISSYLAWYQQKPGKAPKLLIYQASTLASGVPSRFSGSGSGTDFTLTISSLQPEDFATYYCQTNNAIHTYGGAFGGGTKVEIK |
| 22.5 | 16 | 12.3 | 11.5 |  |  | 0.862 | 3.11e-05 | 36000 | 15.7 | 26.6 | Spesolimab (self-made from the B6 sequence of US9023995B2) (antibody, V domains shown) VH: QVQLVQSGAEVKKPGASVKVSCKASGYSFTSSWIHWVKQAPGQGLEWMGEINPGNVRTNYNENFRNKVTMTVDTSISTAYMELSRLRSDDTAVYYCTVVFYGEPYFPYWGQGTLVTVSS VL: QIVLTQSPGTLSLSPGERATMTCTASSSVSSSYFHWYQQKPGQAPRLWIYRTSRLASGVPDRFSGSGSGTDFTLTISRLEPEDAATYYCHQFHRSPLTFGAGTKLEIK |
